T1: Cathepsin G (UniProt P08311 21-244)
T1 sequence (looked up): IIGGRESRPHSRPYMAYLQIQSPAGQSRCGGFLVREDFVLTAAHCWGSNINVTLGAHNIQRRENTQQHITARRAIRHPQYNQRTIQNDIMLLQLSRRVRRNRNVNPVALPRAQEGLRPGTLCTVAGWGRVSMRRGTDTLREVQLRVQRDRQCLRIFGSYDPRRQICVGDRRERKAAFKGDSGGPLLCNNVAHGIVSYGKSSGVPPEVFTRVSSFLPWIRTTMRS

T2: ADAMTS4 (human, UniProt O75173 213-685, limits assumed)
T2 sequence (looked up): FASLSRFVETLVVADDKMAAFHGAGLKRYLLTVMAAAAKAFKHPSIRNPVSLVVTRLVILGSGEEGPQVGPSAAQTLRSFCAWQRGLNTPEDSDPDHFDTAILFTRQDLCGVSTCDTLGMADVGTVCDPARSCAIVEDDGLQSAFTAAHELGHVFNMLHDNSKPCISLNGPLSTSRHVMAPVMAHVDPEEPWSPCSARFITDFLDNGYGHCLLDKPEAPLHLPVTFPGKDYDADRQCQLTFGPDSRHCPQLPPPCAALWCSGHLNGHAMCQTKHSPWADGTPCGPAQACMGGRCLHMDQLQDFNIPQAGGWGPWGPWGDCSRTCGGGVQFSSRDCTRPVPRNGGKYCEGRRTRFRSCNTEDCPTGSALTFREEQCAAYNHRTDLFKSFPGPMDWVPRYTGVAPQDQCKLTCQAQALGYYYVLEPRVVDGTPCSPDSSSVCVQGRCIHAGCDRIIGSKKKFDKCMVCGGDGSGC

T3: ADAMTS5 (human, UniProt Q9UNA0 262-622, limits assumed)
T3 sequence (looked up): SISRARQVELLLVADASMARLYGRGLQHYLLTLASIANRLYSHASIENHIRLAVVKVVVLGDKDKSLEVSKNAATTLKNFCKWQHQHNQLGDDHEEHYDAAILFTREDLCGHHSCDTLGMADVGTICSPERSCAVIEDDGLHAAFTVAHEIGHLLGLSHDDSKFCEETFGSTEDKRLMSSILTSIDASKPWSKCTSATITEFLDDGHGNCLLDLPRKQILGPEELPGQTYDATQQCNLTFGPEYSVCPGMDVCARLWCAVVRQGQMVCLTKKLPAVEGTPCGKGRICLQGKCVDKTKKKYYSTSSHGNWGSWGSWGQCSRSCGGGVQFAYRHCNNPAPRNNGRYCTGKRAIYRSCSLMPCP

T4: MMP2 (human, UniProt P08253 110-660, limits assumed)
T4 sequence (looked up): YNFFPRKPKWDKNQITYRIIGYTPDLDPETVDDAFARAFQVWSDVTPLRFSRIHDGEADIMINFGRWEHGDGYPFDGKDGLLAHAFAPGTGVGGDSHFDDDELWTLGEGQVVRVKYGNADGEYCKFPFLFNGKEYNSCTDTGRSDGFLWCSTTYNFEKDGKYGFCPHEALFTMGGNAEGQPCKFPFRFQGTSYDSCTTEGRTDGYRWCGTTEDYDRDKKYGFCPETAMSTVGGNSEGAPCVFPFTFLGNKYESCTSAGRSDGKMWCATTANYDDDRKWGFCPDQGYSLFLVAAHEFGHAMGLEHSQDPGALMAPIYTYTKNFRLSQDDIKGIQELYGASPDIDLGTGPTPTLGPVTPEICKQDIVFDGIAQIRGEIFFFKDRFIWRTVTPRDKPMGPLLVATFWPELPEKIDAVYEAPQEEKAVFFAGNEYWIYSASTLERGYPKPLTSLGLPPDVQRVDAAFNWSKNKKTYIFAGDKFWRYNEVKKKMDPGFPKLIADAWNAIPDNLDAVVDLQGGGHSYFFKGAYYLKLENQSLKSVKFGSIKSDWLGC

T5: MMP1 (human, UniProt P03956 100-469, limits assumed)
T5 sequence (looked up): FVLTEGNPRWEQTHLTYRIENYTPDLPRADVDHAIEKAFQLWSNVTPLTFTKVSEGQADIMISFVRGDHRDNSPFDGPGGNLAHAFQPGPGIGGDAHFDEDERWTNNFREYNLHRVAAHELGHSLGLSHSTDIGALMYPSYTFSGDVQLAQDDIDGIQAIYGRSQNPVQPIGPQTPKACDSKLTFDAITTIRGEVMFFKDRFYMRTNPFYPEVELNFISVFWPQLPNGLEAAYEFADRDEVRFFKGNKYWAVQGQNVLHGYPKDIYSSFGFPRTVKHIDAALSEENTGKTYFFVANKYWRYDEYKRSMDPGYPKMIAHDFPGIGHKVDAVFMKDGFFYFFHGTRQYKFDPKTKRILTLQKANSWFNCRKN


Legend:
Test in all cases: cell-based or functional assay
[1] = molecular target: chymotrypsin
[2] = molecular target: T1, Cathepsin G
[3] = molecular target: bovine trypsin (bovine, UniProt P00760 24-246)
[4] = molecular target: Elastase
[5] = molecular target: T2, ADAMTS4
[6] = molecular target: MMP8 (human, UniProt P22894 101-467, limits assumed)
[7] = molecular target: MMP13 (human, UniProt P45452 104-471, limits assumed)
[8] = molecular target: T3, ADAMTS5
[9] = molecular target: MMP3 (human, UniProt P08254 100-477, limits assumed)
[10] = molecular target: MMP9 (human, UniProt P14780 107-707, limits assumed)
[11] = molecular target: T4, MMP2
[12] = molecular target: MMP12 (human, UniProt P39900 106-470, limits assumed)
[13] = molecular target: T5, MMP1

Chain of MMP12 (P39900 106-470 limits assumed): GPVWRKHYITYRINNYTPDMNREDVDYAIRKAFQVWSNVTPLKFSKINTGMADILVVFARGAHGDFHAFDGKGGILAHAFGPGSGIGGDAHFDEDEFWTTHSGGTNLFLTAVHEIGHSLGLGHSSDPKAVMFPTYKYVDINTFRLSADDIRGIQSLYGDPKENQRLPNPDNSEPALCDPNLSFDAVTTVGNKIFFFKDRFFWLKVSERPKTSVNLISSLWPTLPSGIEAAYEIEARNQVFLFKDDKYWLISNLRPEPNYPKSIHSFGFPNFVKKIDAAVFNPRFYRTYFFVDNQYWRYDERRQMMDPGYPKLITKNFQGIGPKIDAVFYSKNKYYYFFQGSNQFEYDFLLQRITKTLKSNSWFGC
Chain of MMP8 (P22894 101-467 limits assumed): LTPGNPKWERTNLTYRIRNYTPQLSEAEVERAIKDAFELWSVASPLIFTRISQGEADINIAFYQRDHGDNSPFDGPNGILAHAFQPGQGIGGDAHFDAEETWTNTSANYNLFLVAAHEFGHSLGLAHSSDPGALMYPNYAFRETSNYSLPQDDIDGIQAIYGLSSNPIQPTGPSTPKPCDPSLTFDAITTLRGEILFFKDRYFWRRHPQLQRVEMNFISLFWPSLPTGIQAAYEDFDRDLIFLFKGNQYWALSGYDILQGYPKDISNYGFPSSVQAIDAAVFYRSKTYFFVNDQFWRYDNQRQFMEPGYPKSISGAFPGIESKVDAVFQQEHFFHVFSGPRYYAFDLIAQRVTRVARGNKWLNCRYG
Chain of MMP3 (P08254 100-477 limits assumed): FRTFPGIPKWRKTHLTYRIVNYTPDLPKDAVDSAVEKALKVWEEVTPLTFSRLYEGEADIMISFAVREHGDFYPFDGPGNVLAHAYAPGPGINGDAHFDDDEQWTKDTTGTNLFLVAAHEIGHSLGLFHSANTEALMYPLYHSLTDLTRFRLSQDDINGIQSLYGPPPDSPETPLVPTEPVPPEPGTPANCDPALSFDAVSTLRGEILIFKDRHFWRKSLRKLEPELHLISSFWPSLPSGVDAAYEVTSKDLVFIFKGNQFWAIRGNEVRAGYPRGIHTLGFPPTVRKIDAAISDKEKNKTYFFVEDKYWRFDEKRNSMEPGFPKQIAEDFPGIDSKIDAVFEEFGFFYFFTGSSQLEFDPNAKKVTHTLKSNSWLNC
Chain of bovine trypsin (P00760 24-246): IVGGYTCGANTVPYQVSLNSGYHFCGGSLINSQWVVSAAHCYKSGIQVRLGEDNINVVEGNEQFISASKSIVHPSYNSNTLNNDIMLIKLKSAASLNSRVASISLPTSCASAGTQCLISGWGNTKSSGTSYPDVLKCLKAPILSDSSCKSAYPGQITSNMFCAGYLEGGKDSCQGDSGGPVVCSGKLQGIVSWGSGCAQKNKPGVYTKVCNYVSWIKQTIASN
Chain of MMP9 (P14780 107-707 limits assumed): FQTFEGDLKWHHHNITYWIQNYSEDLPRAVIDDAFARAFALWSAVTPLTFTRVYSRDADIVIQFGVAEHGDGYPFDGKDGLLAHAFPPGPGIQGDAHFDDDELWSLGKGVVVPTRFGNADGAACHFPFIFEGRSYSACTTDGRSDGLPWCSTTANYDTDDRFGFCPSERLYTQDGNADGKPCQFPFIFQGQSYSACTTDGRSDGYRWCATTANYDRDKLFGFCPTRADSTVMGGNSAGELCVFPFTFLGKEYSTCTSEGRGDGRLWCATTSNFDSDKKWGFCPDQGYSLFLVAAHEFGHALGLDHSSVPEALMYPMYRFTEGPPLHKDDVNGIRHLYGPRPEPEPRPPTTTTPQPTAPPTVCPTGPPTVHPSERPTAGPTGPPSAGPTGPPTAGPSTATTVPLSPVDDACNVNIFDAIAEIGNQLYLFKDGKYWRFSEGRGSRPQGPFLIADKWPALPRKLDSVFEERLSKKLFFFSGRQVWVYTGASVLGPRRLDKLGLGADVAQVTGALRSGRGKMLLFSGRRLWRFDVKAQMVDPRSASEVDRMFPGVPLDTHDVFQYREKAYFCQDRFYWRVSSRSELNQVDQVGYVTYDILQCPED

| Protease Inhibition (% of WT) [1] | Protease Inhibition (% of WT) [2] | Protease Inhibition (% of WT) [3] | Protease Inhibition (% of WT) [4] | Protease Inhibition (% of WT) [5] | Protease Inhibition (% of WT) [6] | Protease Inhibition (% of WT) [7] | Protease Inhibition (% of WT) [8] | Protease Inhibition (% of WT) [9] | Protease Inhibition (% of WT) [10] | Protease Inhibition (% of WT) [11] | Protease Inhibition (% of WT) [12] | Protease Inhibition (% of WT) [13] | Binder |
| --- | --- | --- | --- | --- | --- | --- | --- | --- | --- | --- | --- | --- | --- |
| 25 % of WT | 324 % of WT | 84 % of WT | 102 % of WT | 82 % of WT | 210 % of WT | 131 % of WT | 205 % of WT | 130 % of WT | 500 % of WT | 118 % of WT | 170 % of WT | 327 % of WT | Variant A2M, bait region SEQ ID NO 127 (other) SVSGKPQYMVLVPSLLHTETTEKGCVLLSYLNETVTVSASLESVRGNRSLFTDLEAENDVLHCVAFAVPKSSSNEEVMFLTVQVKGPTQEFKKRTTVMVKNEDSLVFVQTDKSIYKPGQTVKFRVVSMDENFHPLNELIPLVYIQDPKGNRIAQWQSFQLEGGLKQFSFPLSSEPFQGSYKVVVQKKSGGRTEHPFTVEEFVLPKFEVQVTVPKIITILEEEMNVSVCGLYTYGKPVPGHVTVSICRKYSDASDCHGEDSQAFCEKFSGQLNSHGCFYQQVKTKVFQLKRKEYEMKLHTEAQIQEEGTVVELTGRQSSEITRTITKLSFVKVDSHFRQGIPFFGQVRLVDGKGVPIPNKVIFIRGNEANYYSNATTDEHGLVQFSINTTNVMGTSLTVRVNYKDRSPCYGYQWVSEEHEEAHHTAYLVFSPSKSFVHLEPMSHELPCGHTQTVQAHYILNGGTLLGLKKLSFYYLIMAKGGIVRTGTHGLLVKQEDMKGHFSISIPVKSDIAPVARLLIYAVLPTGDVIGDSAKYDVENCLANKVDLSFSPSQSLPASHAHLRVTAAPQSVCALRAVDQSVLLMKPDAELSASSVYNLLPEKDLTGFPGPLNDQDDEDCINRHNVYINGITYTPVSSTNEKDMYSFLEDMGLKAFTNSKIRKPKMCPQLEQYEMHGPIPENFFGVSELEGRGSEAIPMSIPTEGEGEGEGVEEPHTKLRKYFPETWIWDLVVVNSAGVAEVGVTVPDTITEWKAGAFCLSEDAGLGISSTASLRAFQPFFVELTMPYSVIRGEAFTLKATVLNYLPKCIRVSVQLEASPAFLAVPVEKEQAPHCICANGRQTVSWAVTPKSLGNVNFTVSAEALESQELCGTEVPSVPEHGRKDTVIKPLLVEPEGLEKETTFNSLLCPSGGEVSEELSLKLPPNVVEESARASVSVLGDILGSAMQNTQNLLQMPYGCGEQNMVLFAPNIYVLDYLNETQQLTPEIKSKAIGYLNTGYQRQLNYKHYDGSYSTFGERYGRNQGNTWLTAFVLKTFAQARAYIFIDEAHITQALIWLSQRQKDNGCFRSSGSLLNNAIKGGVEDEVTLSAYITIALLEIPLTVTHPVVRNALFCLESAWKTAQEGDHGSHVYTKALLAYAFALAGNQDKRKEVLKSLNEEAVKKDNSVHWERPQKPKAPVGHFYEPQAPSAEVEMTSYVLLAYLTAQPAPTSEDLTSATNIVKWITKQQNAQGGFSSTQDTVVALHALSKYGAATFTRTGKAAQVTIQSSGTFSSKFQVDNNNRLLLQQVSLPELPGEYSMKVTGEGCVYLQTSLKYNILPEKEEFPFALGVQTLPQTCDEPKAHTSFQISLSVSYTGSRSASNMAIVDVKMVSGFIPLKPTVKMLERSNHVSRTEVSSNHVLIYLDKVSNQTLSLFFTVLQDVPVRDLKPAIVKVYDYYETDEFAIAEYNAPCSKDLGNADYKDDDDKGASHHHHHH |
| 10 % of WT | 437 % of WT | 20 % of WT | 300 % of WT | 86 % of WT | 161 % of WT | 117 % of WT | 185 % of WT | 100 % of WT | 500 % of WT | 67 % of WT | 136 % of WT | 388 % of WT | Variant A2M, bait region SEQ ID NO 132 (other) SVSGKPQYMVLVPSLLHTETTEKGCVLLSYLNETVTVSASLESVRGNRSLFTDLEAENDVLHCVAFAVPKSSSNEEVMFLTVQVKGPTQEFKKRTTVMVKNEDSLVFVQTDKSIYKPGQTVKFRVVSMDENFHPLNELIPLVYIQDPKGNRIAQWQSFQLEGGLKQFSFPLSSEPFQGSYKVVVQKKSGGRTEHPFTVEEFVLPKFEVQVTVPKIITILEEEMNVSVCGLYTYGKPVPGHVTVSICRKYSDASDCHGEDSQAFCEKFSGQLNSHGCFYQQVKTKVFQLKRKEYEMKLHTEAQIQEEGTVVELTGRQSSEITRTITKLSFVKVDSHFRQGIPFFGQVRLVDGKGVPIPNKVIFIRGNEANYYSNATTDEHGLVQFSINTTNVMGTSLTVRVNYKDRSPCYGYQWVSEEHEEAHHTAYLVFSPSKSFVHLEPMSHELPCGHTQTVQAHYILNGGTLLGLKKLSFYYLIMAKGGIVRTGTHGLLVKQEDMKGHFSISIPVKSDIAPVARLLIYAVLPTGDVIGDSAKYDVENCLANKVDLSFSPSQSLPASHAHLRVTAAPQSVCALRAVDQSVLLMKPDAELSASSVYNLLPEKDLTGFPGPLNDQDDEDCINRHNVYINGITYTPVSSTNEKDMYSFLEDMGLKAFTNSKIRKPKMCPQLEQYEMHGPEGEGEGEGIPENFFGVSELEGRGSSEDLVVQIVEEPHTKLRKYFPETWIWDLVVVNSAGVAEVGVTVPDTITEWKAGAFCLSEDAGLGISSTASLRAFQPFFVELTMPYSVIRGEAFTLKATVLNYLPKCIRVSVQLEASPAFLAVPVEKEQAPHCICANGRQTVSWAVTPKSLGNVNFTVSAEALESQELCGTEVPSVPEHGRKDTVIKPLLVEPEGLEKETTFNSLLCPSGGEVSEELSLKLPPNVVEESARASVSVLGDILGSAMQNTQNLLQMPYGCGEQNMVLFAPNIYVLDYLNETQQLTPEIKSKAIGYLNTGYQRQLNYKHYDGSYSTFGERYGRNQGNTWLTAFVLKTFAQARAYIFIDEAHITQALIWLSQRQKDNGCFRSSGSLLNNAIKGGVEDEVTLSAYITIALLEIPLTVTHPVVRNALFCLESAWKTAQEGDHGSHVYTKALLAYAFALAGNQDKRKEVLKSLNEEAVKKDNSVHWERPQKPKAPVGHFYEPQAPSAEVEMTSYVLLAYLTAQPAPTSEDLTSATNIVKWITKQQNAQGGFSSTQDTVVALHALSKYGAATFTRTGKAAQVTIQSSGTFSSKFQVDNNNRLLLQQVSLPELPGEYSMKVTGEGCVYLQTSLKYNILPEKEEFPFALGVQTLPQTCDEPKAHTSFQISLSVSYTGSRSASNMAIVDVKMVSGFIPLKPTVKMLERSNHVSRTEVSSNHVLIYLDKVSNQTLSLFFTVLQDVPVRDLKPAIVKVYDYYETDEFAIAEYNAPCSKDLGNADYKDDDDKGASHHHHHH |

Reference: US20230250154A1 (CYTONICS, published 2023)
